Data published in publication PMC11574045, “A cofactor-induced repressive type of transcription factor condensation can be induced by synthetic peptides to suppress tumorigenesis” (The EMBO Journal, 2024).

B1: ZKSCAN3 (protein, UniProt Q9BRR0 1-538, looked up)
Zinc finger protein with KRAB …: MARELSESTALDAQSTEDQMELLVIKVEEEEAGFPSSPDLGSEGSRERFRGFRYPEAAGPREALSRLRELCRQWLQPEMHSKEQILELLVLEQFLTILPGNLQSWVREQHPESGEEVVVLLEYLERQLDEPAPQVSGVDQGQELLCCKMALLTPAPGSQSSQFQLMKALLKHESVGSQPLQDRVLQVPVLAHGGCCREDKVVASRLTPESQGLLKVEDVALTLTPEWTQQDSSQGNLCRDEKQENHGSLVSLGDEKQTKSRDLPPAEELPEKEHGKISCHLREDIAQIPTCAEAGEQEGRLQRKQKNATGGRRHICHECGKSFAQSSGLSKHRRIHTGEKPYECEECGKAFIGSSALVIHQRVHTGEKPYECEECGKAFSHSSDLIKHQRTHTGEKPYECDDCGKTFSQSCSLLEHHRIHTGEKPYQCSMCGKAFRRSSHLLRHQRIHTGDKNVQEPEQGEAWKSRMESQLENVETPMSYKCNECERSFTQNTGLIEHQKIHTGEKPYQCNACGKGFTRISYLVQHQRSHVGKNILSQ
B2: ZNF213 (protein, UniProt O14771 1-459, looked up)
Zinc finger protein 213: MAAPLEAQDQAPGEGEGLLIVKVEDSSWEQESAQHEDGRDSEACRQRFRQFCYGDVHGPHEAFSQLWELCCRWLRPELRTKEQILELLVLEQFLTVLPGEIQGWVREQHPGSGEEAVALVEDLQKQPVKAWRQDVPSEEAEPEAAGRGSQATGPPPTVGARRRPSVPQEQHSHSAQPPALLKEGRPGETTDTCFVSGVHGPVALGDIPFYFSREEWGTLDPAQRDLFWDIKRENSRNTTLGFGLKGQSEKSLLQEMVPVVPGQTGSDVTVSWSPEEAEAWESENRPRAALGPVVGARRGRPPTRRRQFRDLAAEKPHSCGQCGKRFRWGSDLARHQRTHTGEKPHKCPECDKSFRSSSDLVRHQGVHTGEKPFSCSECGKSFSRSAYLADHQRIHTGEKPFGCSDCGKSFSLRSYLLDHRRVHTGERPFGCGECDKSFKQRAHLIAHQSLHAKMAQPVG
B3: ZFP67 (protein, UniProt O15156 1-539, looked up)
Zinc finger and BTB …: MGSPEDDLIGIPFPDHSSELLSCLNEQRQLGHLCDLTIRTQGLEYRTHRAVLAACSHYFKKLFTEGGGGAVMGAGGSGTATGGAGAGVCELDFVGPEALGALLEFAYTATLTTSSANMPAVLQAARLLEIPCVIAACMEILQGSGLEAPSPDEDDCERARQYLEAFATATASGVPNGEDSPPQVPLPPPPPPPPRPVARRSRKPRKAFLQTKGARANHLVPEVPTVPAHPLTYEEEEVAGRVGSSGGSGPGDSYSPPTGTASPPEGPQSYEPYEGEEEEEELVYPPAYGLAQGGGPPLSPEELGSDEDAIDPDLMAYLSSLHQDNLAPGLDSQDKLVRKRRSQMPQECPVCHKIIHGAGKLPRHMRTHTGEKPFACEVCGVRFTRNDKLKIHMRKHTGERPYSCPHCPARFLHSYDLKNHMHLHTGDRPYECHLCHKAFAKEDHLQRHLKGQNCLEVRTRRRRKDDAPPHYPPPSTAAASPAGLDLSNGHLDTFRLSLARFWEQSAPTGPPVSTPGPPDDDEEEGAPTTPQAEGAMESS
B4: CALR (protein, UniProt P27797 18-417, looked up)
Calreticulin: EPAVYFKEQFLDGDGWTSRWIESKHKSDFGKFVLSSGKFYGDEEKDKGLQTSQDARFYALSASFEPFSNKGQTLVVQFTVKHEQNIDCGGGYVKLFPNSLDQTDMHGDSEYNIMFGPDICGPGTKKVHVIFNYKGKNVLINKDIRCKDDEFTHLYTLIVRPDNTYEVKIDNSQVESGSLEDDWDFLPPKKIKDPDASKPEDWDERAKIDDPTDSKPEDWDKPEHIPDPDAKKPEDWDEEMDGEWEPPVIQNPEYKGEWKPRQIDNPDYKGTWIHPEIDNPEYSPDPSIYAYDNFGVLGLDLWQVKSGTIFDNFLITNDEAYAEEFGNETWGVTKAAEKQMKDKQDEEQRLKEEEEDKKRKEEEEAEDKEDDEDKDEDEEDEEDKEEDEEEDVPGQAKDEL
B5: ZNF19 (protein, UniProt P17023 1-458, looked up)
Zinc finger protein 19: MAAMPLKAQYQEMVTFEDVAVHFTKTEWTGLSPAQRALYRSVMLENFGNLTALGYPVPKPALISLLERGDMAWGLEAQDDPPAERTKNVCKDVETNIDSESTLIQGISEERDGMMSHGQLKSVPQRTDFPETRNVEKHQDIPTVKNIQGKVPRIPCARKPFICEECGKSFSYFSYYARHQRIHTGEKPFECSECGKAFNGNSSLIRHQRIHTGERPYQCEECGRAFNDNANLIRHQRIHSGDRPYYCTECGNSFTSSSEFVIHQRIHTGEKPYECNECGKAFVGNSPLLRHQKIHTGEKPYECNECGKSFGRTSHLSQHQRIHTGEKPYSCKVCGQAFNFHTKLTRHQRIHSEEKPFDCVDCGKAFSAQEQLKRHLRIHTQESSYVCDECGKALTSKRNLHQHQRIHTGEKPYECSKYEKAFGTSSQLGHLEHVYSGEKPVLDICRFGLPEFFTPFYW
B6: ZNF165 (protein, UniProt P49910 1-485, looked up)
Zinc finger protein 165: MATEPKKAAAQNSPEDEGLLIVKIEEEEFIHGQDTCLQRSELLKQELCRQLFRQFCYQDSPGPREALSRLRELCCQWLKPEIHTKEQILELLVLEQFLTILPGDLQAWVHEHYPESGEEAVTILEDLERGTDEAVLQVQAHEHGQEIFQKKVSPPGPALNVKLQPVETKAHFDSSEPQLLWDCDNESENSRSMPKLEIFEKIESQRIISGRISGYISEASGESQDICKSAGRVKRQWEKESGESQRLSSAQDEGFGKILTHKNTVRGEIISHDGCERRLNLNSNEFTHQKSCKHGTCDQSFKWNSDFINHQIIYAGEKNHQYGKSFKSPKLAKHAAVFSGDKTHQCNECGKAFRHSSKLARHQRIHTGERCYECNECGKSFAESSDLTRHRRIHTGERPFGCKECGRAFNLNSHLIRHQRIHTREKPYECSECGKTFRVSSHLIRHFRIHTGEKPYECSECGRAFSQSSNLSQHQRIHMRENLLM
B7: ZIC3 (protein, UniProt O60481 1-467, looked up)
Zinc finger protein ZIC 3: MTMLLDGGPQFPGLGVGSFGAPRHHEMPNREPAGMGLNPFGDSTHAAAAAAAAAAFKLSPAAAHDLSSGQSSAFTPQGSGYANALGHHHHHHHHHHHTSQVPSYGGAASAAFNSTREFLFRQRSSGLSEAASGGGQHGLFAGSASSLHAPAGIPEPPSYLLFPGLHEQGAGHPSPTGHVDNNQVHLGLRGELFGRADPYRPVASPRTDPYAAGAQFPNYSPMNMNMGVNVAAHHGPGAFFRYMRQPIKQELSCKWIDEAQLSRPKKSCDRTFSTMHELVTHVTMEHVGGPEQNNHVCYWEECPREGKSFKAKYKLVNHIRVHTGEKPFPCPFPGCGKIFARSENLKIHKRTHTGEKPFKCEFEGCDRRFANSSDRKKHMHVHTSDKPYICKVCDKSYTHPSSLRKHMKVHESQGSDSSPAASSGYESSTPPAIASANSKDTTKTPSAVQTSTSHNPGLPPNFNEWYV
B8: ZGLP1 (protein, UniProt P0C6A0 1-273, looked up)
GATA-type zinc finger protein …: MEAEPIPDSSMPAKLLAPPCLNLERLGGSPSQEKPRTPGCCRISERSLWPACQESVTALCFLQETVERLGQSPAQDTPVLGPCWDPMALGTQGRLLLDRDSKDTQTRISQKGRRLQPPGTPSAPPQRRPRKQLNPCRGTERVDPGFEGVTLKFQIKPDSSLQIIPTYSLPCSSRSQESPADAVGGPAAHPGGTEAHSAGSEALEPRRCASCRTQRTPLWRDAEDGTPLCNACGIRYKKYGTRCSSCWLVPRKNVQPKRLCGRCGVSLDPIQEG
B9: CARHSP1 (protein, UniProt Q9Y2V2 2-147, looked up)
Calcium-regulated heat-stable …: SSEPPPPPQPPTHQASVGLLDTPRSRERSPSPLRGNVVPSPLPTRRTRTFSATVRASQGPVYKGVCKCFCRSKGHGFITPADGGPDIFLHISDVEGEYVPVEGDEVTYKMCSIPPKNEKLQAVEVVITHLAPGTKHETWSGHVISS
B10: ZNF174 (protein, UniProt Q15697 1-407, looked up)
Zinc finger protein 174: MAAKMEITLSSNTEASSKQERHIIAKLEEKRGPPLQKNCPDPELCRQSFRRFCYQEVSGPQEALSQLRQLCRQWLQPELHTKEQILELLVMEQFLTILPPEIQARVRHRCPMSSKEIVTLVEDFHRASKKPKQWVAVCMQGQKVLLEKTGSQLGEQELPDFQPQTPRRDLRESSPAEPSQAGAYDRLSPHHWEKSPLLQEPTPKLAGTEAPRMRSDNKENPQQEGAKGAKPCAVSAGRSKGNGLQNPEPRGANMSEPRLSRRQVSSPNAQKPFAHYQRHCRVEYISSPLKSHPLRELKKSKGGKRSLSNRLQHLGHQPTRSAKKPYKCDDCGKSFTWNSELKRHKRVHTGERPYTCGECGNCFGRQSTLKLHQRIHTGEKPYQCGQCGKSFRQSSNLHQHHRLHHGD
B11: CARF (protein, UniProt Q9NXV6 2-580, looked up)
CDKN2A-interacting protein: AQEVSEYLSQNPRVAAWVEALRCDGETDKHWRHRRDFLLRNAGDLAPAGGAASASTDEAADAESGTRNRQLQQLISFSMAWANHVFLGCRYPQKVMDKILSMAEGIKVTDAPTYTTRDELVAKVKKRGISSSNEGVEEPSKKRVIEGKNSSAVEQDHAKTSAKTERASAQQENSSTCIGSAIKSESGNSARSSGISSQNSSTSDGDRSVSSQSSSSVSSQVTTAGSGKASEAEAPDKHGSASFVSLLKSSVNSHMTQSTDSRQQSGSPKKSALEGSSASASQSSSEIEVPLLGSSGSSEVELPLLSSKPSSETASSGLTSKTSSEASVSSSVAKNSSSSGTSLLTPKSSSSTNTSLLTSKSTSQVAASLLASKSSSQTSGSLVSKSTSLASVSQLASKSSSQTSTSQLPSKSTSQSSESSVKFSCKLTNEDVKQKQPFFNRLYKTVAWKLVAVGGFSPNVNHGELLNAAIEALKATLDVFFVPLKELADLPQNKSSQESIVCELRCKSVYLGTGCGKSKENAKAVASREALKLFLKKKVVVKICKRKYRGSEIEDLVLLDEESRPVNLPPALKHPQELL
B12: ZFY (protein, UniProt P08048 1-801, looked up)
Zinc finger Y-chromosomal …: MDEDEFELQPQEPNSFFDGIGADATHMDGDQIVVEIQEAVFVSNIVDSDITVHNFVPDDPDSVVIQDVVEDVVIEEDVQCSDILEEADVSENVIIPEQVLDSDVTEEVSLPHCTVPDDVLASDITSTSMSMPEHVLTSESMHVCDIGHVEHMVHDSVVEAEIITDPLTSDIVSEEVLVADCAPEAVIDASGISVDQQDNDKASCEDYLMISLDDAGKIEHDGSTGVTIDAESEMDPCKVDSTCPEVIKVYIFKADPGEDDLGGTVDIVESEPENDHGVELLDQNSSIRVPREKMVYMTVNDSQQEDEDLNVAEIADEVYMEVIVGEEDAAVAAAAAAVHEQQIDEDEMKTFVPIAWAAAYGNNSDGIENRNGTASALLHIDESAGLGRLAKQKPKKKRRPDSRQYQTAIIIGPDGHPLTVYPCMICGKKFKSRGFLKRHMKNHPEHLAKKKYHCTDCDYTTNKKISLHNHLESHKLTSKAEKAIECDECGKHFSHAGALFTHKMVHKEKGANKMHKCKFCEYETAEQGLLNRHLLAVHSKNFPHICVECGKGFRHPSELRKHMRIHTGEKPYQCQYCEYRSADSSNLKTHIKTKHSKEMPFKCDICLLTFSDTKEVQQHTLVHQESKTHQCLHCDHKSSNSSDLKRHVISVHTKDYPHKCEMCEKGFHRPSELKKHVAVHKGKKMHQCRHCDFKIADPFVLSRHILSVHTKDLPFRCKRCRKGFRQQNELKKHMKTHSGRKVYQCEYCEYSTTDASGFKRHVISIHTKDYPHRCEYCKKGFRRPSEKNQHIMRHHKEVGLP

System: HEK293FT cells transfected with TF library
Experiment: Screening of TF condensates based on fluorescent puncta
Type: cell-based
Conditions: Figure 1B numerical data; TF library screen, one value per transcriptional factor
Outline: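 HEK293FT cells were reverse-transfected with Flag- or GAL4-tagged TF plasmids (1.6 μg/ml, PEI). After 60 h, cells were cultured 12 h with or without glucose, then fixed and immunostained with anti-Flag or anti-GAL4 and Alexa 488 secondaries. Fluorescent puncta were imaged over fifty random fields per well by high-content imaging.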

| Molecule | Z score of condensed fraction |
| --- | --- |
| B1 | 0.9842 |
| B2 | -0.4697 |
| B3 | 0.1735 |
| B4 | 1.22 |
| B5 | -0.9415 |
| B6 | 0.7106 |
| B7 | -0.3091 |
| B8 | -0.7375 |
| B9 | 2.822 |
| B10 | -0.9036 |
| B11 | 2.409 |
| B12 | -1.019 |
